Measured values: patent publication US20030008355A1 (published 2003)

T1: carcinoembryonic antigen (CEA) (UniProt P06731 35-685, limits assumed)
T1 construct: Antigen coated on microtitre plates
T1 sequence (looked up): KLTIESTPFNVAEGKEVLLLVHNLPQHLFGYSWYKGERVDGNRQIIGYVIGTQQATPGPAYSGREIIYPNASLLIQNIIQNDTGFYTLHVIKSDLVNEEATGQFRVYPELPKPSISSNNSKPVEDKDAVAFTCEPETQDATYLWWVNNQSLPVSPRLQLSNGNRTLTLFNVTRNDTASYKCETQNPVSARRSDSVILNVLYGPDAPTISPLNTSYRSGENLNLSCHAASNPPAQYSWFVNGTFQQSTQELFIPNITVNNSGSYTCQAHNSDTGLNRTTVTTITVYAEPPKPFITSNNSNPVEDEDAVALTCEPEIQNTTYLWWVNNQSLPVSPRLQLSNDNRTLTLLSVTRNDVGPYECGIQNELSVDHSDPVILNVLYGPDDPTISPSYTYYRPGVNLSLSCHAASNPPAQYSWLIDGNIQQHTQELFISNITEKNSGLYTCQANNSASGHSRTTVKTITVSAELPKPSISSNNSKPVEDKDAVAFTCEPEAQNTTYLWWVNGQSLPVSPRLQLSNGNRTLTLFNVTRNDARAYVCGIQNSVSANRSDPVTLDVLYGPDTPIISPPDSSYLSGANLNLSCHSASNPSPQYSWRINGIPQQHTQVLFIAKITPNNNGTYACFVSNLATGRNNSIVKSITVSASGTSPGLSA

B1: mouse-derived anti-carcinoembryonic antigen whole antibody A5B7 (antibody, from another filing, V domains shown)
VH: EVKLVESGGGLVQPGGSLRLSCATSGFTFTDYYMNWVRQPPGKALEWLGFIGNKANGYTTEYSASVKGRFTISRDKSQSILYLQMNTLRAEDSATYYCTRDRGLRFYFDYWGQGTTLTVSS
VL: QTVLSQSPAILSASPGEKVTMTCRASSSVTYIHWYQQKPGSSPKSWIYATSNLASGVPARFSGSGSGTSYSLTISRVEAEDAATYYCQHWSSKPPTFGGGTKLEIK
B2: 6H9 single-chain Fv (scFv)
scFv: QVQLQESGPSLVKPSQTLSLTCTVSGFSLTKYGVSWVRQAPGKALEWLGGVSSGALTAYNTALQSRLSVTRDTSKSQFSLSLSSVTTEDTAIYYCAKSVNGDSVPYGLDYWSPGLLLTVSSGGGGSGGGGSGGGGSQDVLTQPSSVSGSLGQRVSITCSGSSSNIGGNAYVGWYQQVPGSAPRLLISATTDRASGIPDRFSGSRSGNTATLTISSLQAEDEADYYCASYQSTYSGVFGSGTRLTVLGHHHHHH
notes: VH-(Gly4Ser)3-VL with C-terminal hexa-histidine tag, expressed in E. coli HB 2151; also called 6H9 SFv; sFv
B3: 6H9 whole antibody (sheep monoclonal antibody secreted by hybridoma 6H9) (antibody, V domains shown)
VH: QVQLQESGPSLVKPSQTLSLTCTVSGFSLTKYGVSWVRQAPGKALEWLGGVSSGALTAYNTALQSRLSVTRDTSKSQFSLSLSSVTTEDTAIYYCAKSVNGDSVPYGLDYWSPGLLLTVSS
VL: QDVLTQPSSVSGSLGQRVSITCSGSSSNIGGNAYVGWYQQVPGSAPRLLISATTDRASGIPDRFSGSRSGNTATLTISSLQAEDEADYYCASYQSTYSGVFGSGTRLTVLG
notes: Whole sheep monoclonal antibody

Assays:
[1] = target: carcinoembryonic antigen (CEA) (UniProt P06731); test: acid-wash EIA on CEA-coated plates, citrate pH 2.5, 1 h 37 C
[2] = target: T1, carcinoembryonic antigen (CEA); test: acid-wash EIA on CEA-coated plates, citrate pH 2.0, 1 h 37 C
Procedure: (§1) Carcinoembryonic antigen (CEA)-coated microtitre plates were prepared as described previously. Single-chain Fv samples (6H9) were diluted to a range of concentrations between 1 ng/ml and 100 ng/ml in PBS at pH 7.2 containing 1% bovine serum albumin (BSA). 100 μl samples were added to the microtitre plate wells and incubated for 1 hour at 37° C. The plates were then washed, 200 μl per well of citrate added, and the plates incubated for 1 hour at 37° C. In this case, the acid preparations were made using a stock solution of 100 mM citrate diluted to pH values of 4.0, 3.5, 3.0, 2.5 and 2.0 in the reaction mixture. PBS at pH 7.2 was used as a reference control. The plates were then washed and 100 μl per well of mouse anti-tetra-histidine antibody (Qiagen) (100 ng/ml diluted in PBS at pH 7.2 with 1% BSA) added and incubated for 1 hour at 37° C. […] The plates were then washed, treated with PNPP as described previously and the absorbance measured using a spectrophotometer at 405 nm.
(§2) As a control for acid resistance, sFv samples were incubated with PBS at pH 7.2 to generate an EIA response curve for the SFv samples. In the linear region, a concentration of 10-20 ng/ml of the SFv sample gave an absorbance (A₄₀₅) of 1.0-1.5 and was therefore used to determine the amount of antibody bound in the acid washed samples as a percentage of the amount bound in the reference sample.

[3] = target: T1, carcinoembryonic antigen (CEA); test: acid-wash EIA on CEA-coated plates, citrate pH 2.5, 1 h 37 C
Procedure: as §1, §2

[4] = target: T1, carcinoembryonic antigen (CEA); test: acid-wash EIA on CEA-coated plates, citrate pH 3.5, 1 h 37 C
Procedure: as §1, §2

[5] = target: T1, carcinoembryonic antigen (CEA); test: acid-wash EIA on CEA-coated plates, HCl pH 2, 1 h 37 C, against standard EIA
Procedure: Maxisorb assay plates (NUNC) were coated with CEA (0.4 μg/ml in phosphate-buffered saline at pH 7.2), 100 μl per well and left overnight at 4° C. The plates were then washed three times using phosphate buffered saline at pH 7.2 with 0.01% Tween 20 detergent. Any remaining reactive sites on the plates were blocked by the addition of 200 μl per well of 0.2% fat-free milk protein in PBS at pH 7.2 at 37° C. for ½ hour. The plates were then washed in PBS as described above and 45 μl of the antibody samples were added to the wells of the plates. The samples were incubated for one hour at 37° C. and then washed as described previously. Bound antibody was detected using alkaline phosphatase-conjugated donkey anti-sheep antibody (Sigma A5187 diluted 1/5000 in PBS at pH 7.2 with 1% BSA). The plates were then washed and 100 μl per well of PNPP (Sigma N2770) solution was added. Absorbance was measured using a spectrophotometer at 405 nm with phosphate buffered saline as a control.
Coating and binding of antibody samples was as described for the standard EIA above. However, after incubation with the antibody samples, the plates were washed and 200 μl per well of HCl (10 mM Stock solution) at pH 2 was added for one hour at 37° C. After three washes the antibody remaining bound to antigen was detected using alkaline phosphatase-conjugated donkey anti-sheep antibody and PNPP as described above. […]

Molecule	percent antigen binding retained at pH 2.5 relative to pH 7.2 [1]	percent antigen binding retained at pH 2.0 relative to pH 7.2 [2]	percent antigen binding retained at pH 2.5 relative to pH 7.2 [3]	percent antigen binding retained at pH 3.5 relative to pH 7.2 [4]	retention of binding in acid-washed EIA (pH 2) relative to non-acid washed EIA [5]
mouse-derived anti-carcinoembryonic antigen single-chain Fv MFE (scFv)	< 5%				
B1	< 5%				
B2		> 50%	> 60%	> 70%	
B3		> 50%	> 60%	> 70%	> 50%
